According to publication PMC7948536:

Assays:
[1] = target: E3 SCF^βTrCP (neddylated; Skp1–βTrCP with Nedd8–ROC1–CUL1) (UniProt P63208)
[2] = target: E3 SCF^βTrCP (neddylated; Skp1–βTrCP with Nedd8–ROC1–CUL1) (UniProt P63208); remark: listed apart in the source
[3] = target: E3 SCF^βTrCP (neddylated; Skp1–βTrCP with Nedd8–ROC1–CUL1) (UniProt P63208); remark: listed apart in the source

Substance: IκBα (EE)–Ub (E64C)–I647 (from UniProt P25963 1-20; P0CG48 1-74; P25963 23-54)
- FRET IκBα diubiquitination in test tube, time course to 10 min: IκBα–Ub2 product by gel, FRET signal rising alike (Fig. 2A) [1]: > 30%
- real-time FRET IκBα diubiquitination, 30 °C, 30 min; conversion of substrate by gel analysis (Fig. 3A, B) [2]: 85%
- real-time FRET IκBα diubiquitination under single-round turnover condition (preformed complexes treated with apyrase) (Fig. 4) [3]: 20%
